The record followed here is article PMC5307791, “Thermus thermophilus as source of thermozymes for biotechnological applications: homologous expression and biochemical characterization of an α-galactosidase” (Microbial Cell Factories, 2017).

Series [1] concerns the target α-galactosidase from Thermus thermophilus HB27 (TtGalA), N-terminally His-tagged, expressed in T. thermophilus HB27::nar (Thermus thermophilus HB27). Description: SEC-MALS; size-exclusion chromatography (S200 16/60) with Mini DAWN Treos triple-angle light scattering and QELS; 500 µg of protein (1 mg/ml) loaded; 0.5 ml/min; buffer A (50 mM Tris-HCl pH 7.5, 500 mM NaCl).

Substrate in the series “purified protein”: O=[N+]([O-])c1ccc(O[C@H]2O[C@H](CO)[C@H](O)[C@H](O)[C@H]2O)cc1
Description: purified protein. The following applies: 90 °C, pH 6.0, 50 mM sodium phosphate.

Consider “α-galactosidase from Thermus thermophilus HB27 (TtGalA), N-terminally His-tagged, expressed in T. thermophilus HB27::nar (enzyme)”, for which the stoichiometry N in series [1] was 6.

B1: TtGalA (Thermus thermophilus HB27) (protein)
chain: MRLNLGGAEVFLRAEGLEEAPGGVRLWGREVRVFPPFPAKGFFRHGWQSWSLAAWVDPAQAPTPLLPEARRPQADDPFLLEAGAWWGSGVGALRGPDGRALLLGALDLGARVLGREDLLLGRYAGEGGAWFLAHGPEEEVFAAYAQLLPRRLSGRPPRVWCSWYSFYTRIGEDLLLRVLDEVAAFSFEVFQIDDGWQRALGDWEPNDRFPRGMAFLAERIRERGLRPGLWFAPFLVTADSPLFQMRPDWVLRDGEGRPVRAGFNWGRPLYALDAGNEEVVEWAADLVRKALAWGYDYLKLDFLYAAALPGAEGEARYRRAMARLREAAGEAYLLFCGAPVLASLGLADGLRVGPDVAPYWDNEERSFWLADPTGPGLRNALRSTLHRLWLMENVHVDPDVVYFRTRFNLLSPEEMRLQEALAHFTGFKATSDPPSWLLPEEKGRLEAFLAREVPVRRLGPYRFRVGEEEVDYAPLL
Turning to B1, in “purified protein”, the Km is 690 ± 17 µM, the Vmax turned out to be 338 µmol/min/mg and the kcat stood at 710 s⁻¹.
